The values that follow come from paper PMC3425544, “The S100A10 Subunit of the Annexin A2 Heterotetramer Facilitates L2-Mediated Human Papillomavirus Infection” (PLoS ONE, 2012).

“Also recorded” adds a separate entry of the source.

The subject of test [1] is HSV. The settings on record: ref [33]; cited from earlier work. The text has this:
Nonetheless, the link between HSV and H ...

In test [2] the test system is HPV16 PsV infection of HeLa cells. The settings on record: PsV infectivity, FBS present; ref [38]; cited from earlier work. The protocol: SLPI has shown anti-bacterial and anti-fungal activity aside from its noted anti-protease activity (reviewed in [68]). […] Concentrations in cervical mucosal fluids are commonly reported at 1 µg/ml, but are likely to be more concentrated at the cell surface. In addition, SLPI levels in cervical mucus have been measured midcycle as high as ...

For test [3], the system named is A2t. The test is described as follows: ELISA binding to immobilised A2t. Further details: species or system human. The settings on record: 500 ng A2t coated, 400 ng PsV, H16.V5 or anti-SLPI detection. The protocol: For assays to determine accessibility of L2_108–120 epitope on capsid surface, 96-well Microlon ELISA plates (USA Scientific, Ocala, FL) were incubated with 500 ng of HPV16 L1 VLP, HPV16 L1L2 VLP or HPV16 PsV in 100 µL PBS overnight at 4°C. The plate was washed with PBST ([…]) and blocked with 200 µL of PBS containing 3% BSA for 2 h at RT. The plate was washed with PBST and incubated with 1∶1000 16L2.4B4 (anti-L2_108–120) or 1∶5000 H16.V5 (anti-L1) in PBST with 1% BSA for 2 h at RT. The plate was washed and incubated with 1∶5000 rabbit-anti-mouse HRP in PBST with 1% BSA for 1 h at RT. The plate was washed, and 100 µL of the HRP substrate (o-phenylenediamine) was added. The absorbance was measured at 490 nm with a Hidex Chameleon plate reader. In control experiments, no VLP or PsV were added, and stained with primary, secondary, or both antibodies and minimal absorbance was seen. For assays to determine in vitro binding capacity of HPV16 capsids to purified A2t protein, 500 ng of purified A2t was coated separately on ELISA plates overnight at 4°C. […] Bound PsV were detected with conformational anti-L1 H16.V5 antibody, followed by anti-mouse IgG HRP antibody conjugate. Bound SLPI was detected with goat anti-SLPI antibody, followed by anti-goat IgG HRP antibody conjugate and addition of substrate.
Background: ELISA stands for enzyme-linked immunosorbent assay.

Test [4] relates to HIV-1. The settings on record: macrophages; ref [34]; cited from earlier work. The text has this:
A particular local immune event that has been well studied in the context of HPV infection is mucosal co-infection with herpes simplex virus (HSV). Historically, in the 1960s and 1970s, HSV-2 infection was thought to be a possible causative agent for cervical cancer, [31]. However, the role of HSV-2 in cervical cancer began to be questioned when HSV-2 DNA was not consistently found in cervical cancer tissues. Subsequently, HPV DNA was detected in the overwhelming majority of cervical cancer tissue and determined to be the causative agent. […] To test this hypothesis, the effect of SLPI and antibody inhibition of A2t on HPV16 infection of epithelial cel ...

For test [5], the system named is HPV16 PsV infection of HeLa cells. The test is described as follows: HPV16 PsV infection of HeLa cells (GFP, flow cytometry). The class given is cell-based, human. The settings on record: presence of FBS during SLPI incubation and PsV infection; data not shown. As to the method: (§1) HeLa cells (ATCC, Manassas, VA) are human epithelial cells derived from cervical cancer, and were maintained in complete media (IMDM, 10% FBS, 1X PenStrep) at 37°C with 5% CO2 (Lonza, Walkersville, MD). HaCaT cells (Cell Lines Service, Eppelheim, Germany) are in vitro spontaneously transformed human keratinocytes derived from histologically normal skin [75] and were maintained in Defined Keratinocyte Serum-Free Media (KSFM) (Invitrogen, Carlsbad, CA) with manufacturer provided KSFM growth supplement (including insulin, EGF, and FGF) at 37°C with 5% CO2.
Wildtype HPV16 pseudovirions containing GFP reporter were produced by cotransfection of 293TT cells with plasmids encoding codon-optimized HPV16 L1 and L2 and a GFP reporter plasmid (pCIneoGFP) following published procedures. The infectious titer of PsV preparations (in infectious units/mL) was determined by flow cytometric analysis of 293TT cells treated with varying doses of PsV vector stock. […] Confirmation and quantitation of reporter plasmid DNA encapsidation was performed using quantitative real-time PCR following plasmid DNA isolation from pseudovirion preparations by phenol chloroform extraction and ethanol precipitation. L1 content was quantitated by Coomassie Blue staining next to BSA standards following SDS-PAGE. The infectious titer of L2 mutant PsV were determined on 293TT cells as described above for WT PsV. […]

The subject of test [6] is HPV16 PsV infection of HaCaT cells. The test is described as follows: HPV16 PsV infection of HaCaT cells (GFP, flow cytometry). The class given is cell-based, human. The protocol: as §1
Wildtype HPV16 pseudovirions containing GFP reporter were produced by cotransfection of 293TT cells with plasmids encoding codon-optimized HPV16 L1 and L2 and a GFP reporter plasmid (pCIneoGFP) following published procedures. The infectious titer of PsV preparations (in infectious units/mL) was determined by flow cytometric analysis of 293TT cells treated with varying doses of PsV vector stock. Neutralization of PsV were validated in infection assays via pre-incubation with H16.V5 or H16.E70 prior to cellular exposure, and minimal infection rates of less than 1% were observed. To produce pseudovirions with a mutated L2 (108–126) region, site-directed mutagenesis was performed using overlapping mutated primers on the bicistronic packaging HPV16 pseudovirion plasmid p16sheLL as a template. Forward primer 5′-[…]-3′ and reverse primer 5′-[…]-3′ encoding the amino acid substitution of GGDD for LVEE in the L2 capsid region aa 108–111 were used with the QuikChange II XL Site-Directed Mutagenesis Kit (Stratagene, Cedar Creek, TX) according to manufacturer’s instructions. The entire L1 and L2 ORFs of the resulting plasmid were sequenced to confirm mutagenesis of the 108–111 aa L2 region and that no other unexpected mutations were introduced. HPV16 L1–L2(GGDD) PsV containing GFP reporter plasmid were produced as described above for wildtype HPV16 PsV. Confirmation and quantitation of reporter plasmid DNA encapsidation was performed using quantitative real-time PCR following plasmid DNA isolation from pseudovirion preparations by phenol chloroform extraction and ethanol precipitation. L1 content was quantitated by Coomassie Blue staining next to BSA standards following SDS-PAGE. The infectious titer of L2 mutant PsV were determined on 293TT cells as described above for WT PsV.
HaCaT cells seeded at 3×10^4 cells/well or HeLa cells seeded at 2×10^4 cells/well were incubated overnight in 24-well plates at 37°C. The cells were subsequently incubated with wildtype HPV16 PsV containing a pCIneo-GFP vector at an MOI 100 for HaCaT or MOI of 1 for HeLa. The MOIs were chosen for each cell type that achieved 15–25% GFP-positive cells. Infectivity was scored 48 h post infection by enumerating GFP+ cells by flow cytometry. […]
For orientation: In flow cytometry, cells or beads pass a laser one at a time.

B1: secretory leukocyte protease inhibitor (protein)
chain: SGKSFKAGVCPPKKSAQCLRYKKPECQSDWQCPGKKRCCPDTCGIKCLDPVDTPNPTRRKPGKCPVTYGQCLMLNPPNFCEMDGQCKRDLKCCMGMCGKSCVSPVKA
notes: endogenous annexin A2 ligand
On to B1, for which the “inhibition of HSV infection” value in test [1] was “inhibit HSV infection”. Besides, in test [2], the “HPV16 infection of HeLa, SLPI in presence of FBS” value was “no reduction in HPV16 infection”. The “binding to A2t (absorbance at 490 nm)” value in test [3] was “significant binding”. Moreover, the “inhibition of HIV-1 infection” value in test [4] is on record as “inhibit HIV-1 infection of macrophages; also recorded: inhibits the infection of HIV-1”. For the same molecule, in test [5], the “PsV infection, presence of FBS” value is “no reduced infection; also recorded: eliminated the blocking effect of SLPI completely”. Besides, the “pseudo-infection, 25 µg/mL” value in test [6] (25 µg/mL SLPI vs negative and BSA controls, serum free) is recorded as “significant decrease in pseudo-infection”. In test [6] (50 µg/mL SLPI vs negative and BSA controls, serum free), the “pseudo-infection, 50 µg/mL” value is “pseudo-infection further decreased”. For the same molecule, in test [6] (25–50 µg/mL SLPI, 1 h at 4°C prior to PsV, serum free, vs untreated HaCaT cells, 48 h), the decrease in pseudo-infection was 60–80%. Further, in test [6] (HaCaT cells, discussion), the “SLPI inhibition of HPV16 infection” value was “can inhibit HPV16 infection”.
